From publication doi:10.1101/854158 (bioRxiv, 2019)

Legend:
Test in all cases: cryo-EM structure
[1] = target: T1, FANCI (human, UniProt Q9NVI1 1-1328)
T1 sequence: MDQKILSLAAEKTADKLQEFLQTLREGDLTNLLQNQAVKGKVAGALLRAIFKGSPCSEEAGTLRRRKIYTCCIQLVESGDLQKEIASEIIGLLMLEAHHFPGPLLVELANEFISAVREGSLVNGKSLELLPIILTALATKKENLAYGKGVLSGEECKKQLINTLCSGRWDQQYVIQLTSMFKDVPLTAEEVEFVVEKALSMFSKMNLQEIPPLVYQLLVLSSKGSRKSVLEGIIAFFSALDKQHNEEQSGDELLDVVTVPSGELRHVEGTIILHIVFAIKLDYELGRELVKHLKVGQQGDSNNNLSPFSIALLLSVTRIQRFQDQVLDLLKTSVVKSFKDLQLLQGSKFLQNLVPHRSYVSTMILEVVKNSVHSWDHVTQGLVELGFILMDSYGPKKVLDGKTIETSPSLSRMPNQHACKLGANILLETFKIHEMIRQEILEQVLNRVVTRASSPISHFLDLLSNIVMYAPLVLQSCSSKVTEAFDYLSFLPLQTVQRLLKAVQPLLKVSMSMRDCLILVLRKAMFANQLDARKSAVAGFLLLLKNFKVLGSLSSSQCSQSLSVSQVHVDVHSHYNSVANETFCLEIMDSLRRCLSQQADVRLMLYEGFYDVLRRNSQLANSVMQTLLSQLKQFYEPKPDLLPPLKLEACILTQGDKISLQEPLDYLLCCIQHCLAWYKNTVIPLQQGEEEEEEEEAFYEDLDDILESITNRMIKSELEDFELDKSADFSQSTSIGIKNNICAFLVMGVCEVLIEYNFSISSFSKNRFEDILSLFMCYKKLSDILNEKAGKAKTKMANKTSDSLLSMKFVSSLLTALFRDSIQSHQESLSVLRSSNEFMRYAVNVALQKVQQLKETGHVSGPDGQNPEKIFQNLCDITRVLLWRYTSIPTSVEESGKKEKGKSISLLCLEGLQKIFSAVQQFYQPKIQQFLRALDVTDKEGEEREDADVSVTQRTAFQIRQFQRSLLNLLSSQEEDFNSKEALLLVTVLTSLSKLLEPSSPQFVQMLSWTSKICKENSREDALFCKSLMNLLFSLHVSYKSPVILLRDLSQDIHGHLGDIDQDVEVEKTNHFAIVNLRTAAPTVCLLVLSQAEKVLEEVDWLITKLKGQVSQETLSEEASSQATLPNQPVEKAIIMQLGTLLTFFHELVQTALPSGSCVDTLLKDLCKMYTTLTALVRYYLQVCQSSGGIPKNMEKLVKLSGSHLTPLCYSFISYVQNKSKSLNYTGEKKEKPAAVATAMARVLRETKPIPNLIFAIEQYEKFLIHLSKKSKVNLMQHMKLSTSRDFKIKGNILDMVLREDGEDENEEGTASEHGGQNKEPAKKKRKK

[2] = target: T2, FANCC (human, UniProt Q00597 1-558)
T2 sequence: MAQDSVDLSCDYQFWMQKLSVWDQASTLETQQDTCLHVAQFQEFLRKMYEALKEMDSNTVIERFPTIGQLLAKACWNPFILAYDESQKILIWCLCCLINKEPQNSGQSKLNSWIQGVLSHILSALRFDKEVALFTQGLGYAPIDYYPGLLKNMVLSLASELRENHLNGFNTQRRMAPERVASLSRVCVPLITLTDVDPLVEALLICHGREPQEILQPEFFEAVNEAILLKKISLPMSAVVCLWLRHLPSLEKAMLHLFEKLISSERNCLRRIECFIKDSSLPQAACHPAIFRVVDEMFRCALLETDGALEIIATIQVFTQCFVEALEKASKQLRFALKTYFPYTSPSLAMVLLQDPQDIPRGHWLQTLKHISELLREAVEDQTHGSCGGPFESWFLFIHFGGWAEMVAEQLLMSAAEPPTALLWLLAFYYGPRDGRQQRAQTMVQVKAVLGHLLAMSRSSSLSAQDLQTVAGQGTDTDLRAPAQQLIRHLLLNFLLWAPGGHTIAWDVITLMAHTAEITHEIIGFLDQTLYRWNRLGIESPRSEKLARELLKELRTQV

[3] = target: T3, FANCE (human, UniProt Q9HB96 1-536)
T3 sequence: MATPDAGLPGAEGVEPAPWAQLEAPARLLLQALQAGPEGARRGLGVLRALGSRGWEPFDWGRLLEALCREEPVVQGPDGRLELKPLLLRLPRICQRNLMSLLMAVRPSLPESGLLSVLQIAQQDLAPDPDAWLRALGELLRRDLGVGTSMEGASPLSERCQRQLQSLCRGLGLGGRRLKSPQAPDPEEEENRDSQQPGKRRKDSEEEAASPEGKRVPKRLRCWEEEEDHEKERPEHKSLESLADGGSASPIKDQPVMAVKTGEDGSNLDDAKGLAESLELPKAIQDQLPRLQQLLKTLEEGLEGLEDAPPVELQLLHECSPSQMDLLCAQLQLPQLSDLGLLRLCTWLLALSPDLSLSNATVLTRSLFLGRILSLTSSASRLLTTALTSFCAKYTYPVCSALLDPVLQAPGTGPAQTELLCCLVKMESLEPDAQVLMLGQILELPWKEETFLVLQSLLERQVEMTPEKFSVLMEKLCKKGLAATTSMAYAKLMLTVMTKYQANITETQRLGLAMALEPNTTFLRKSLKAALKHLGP

Measured: binding result

B1: FANCL (enzyme)
chain: MAVTEASLLRQCPLLLPQNRSKTVYEGFISAQGRDFHLRIVLPEDLQLKNARLLCSWQLRTILSGYHRIVQQRMQHSPDLMSFMMELKMLLEVALKNRQELYALPPPPQFYSSLIEEIGTLGWDKLVYADTCFSTIKLKAEDASGREHLITLKLKAKYPAESPDYFVDFPVPFCASWTPQSSLISIYSQFLAAIESLKAFWDVMDEIDEKTWVLEPEKPPRSATARRIALGNNVSINIEVDPRHPTMLPECFFLGADHVVKPLGIKLSRNIHLWDPENSVLQNLKDVLEIDFPARAILEKSDFTMDCGICYAYQLDGTIPDQVCDNSQCGQPFHQICLYEWLRGLLTSRQSFNIIFGECPYCSKPITLKMSGRKH
binds: all assays above
